Experimental data taken from US20050148500A1, “Dopaminergic stimulatory factor” (priority 2001, published 2005).
Entries after “also recorded” stand apart in the source; their conditions may differ.

System: MN9D cells
Experiment: Dopamine content of MN9D cells in monolayer culture after incubation with protein (HPLC)
Assay type: cell-based, mouse
Experimental: […] The MN9D cells on each plate were then collected in 10 ml of CMF, transferred to 15 ml centrifuge tubes and centrifuged at 1000×g for 5 min. The supernatant was removed and 600 μl of 0.5 N perchloric acid was added to the cell pellet which was then sonicated on ice for 10-15 s. The cell extract was centrifuged at 4000×g for 30 min and the supernatant stored at −80° C. for subsequent high pressure liquid chromatography (HPLC) analysis of MN9D cell dopamine content. The pellet was stored at −20° C. for subsequent protein analysis.
A second experiment was then conducted to determine whether this effect was due to a change in the doubling time (24 h) of the MN9D cells with increased cell production or was the result of an increase in cellular dopamine. […] Cells were removed from the plates and cell numbers determined by counting in a hematocytometer. Dopamine content was determined by HPLC analysis. The MN9D cells can be differentiated by exposure to either sodium butyrate or dibutryl cyclic adenosine monophosphate for 5 days (Choi et al., 1991) resulting in a reduction in the rate of cell division and the production of extensive cellular processes.
Experiment involved 24 hour incubation with X61 protein(s). X61 protein(s) was incubated with 100 microliter of concentrated monoclonal antibody against 14-3-3 (anti-14-3-3) obtained from Santa Cruz Biotechnology for 15 minutes at room temperature prior to addition to MN9D cells grown on 6-well plates. Data given as ng dopamine per well, n=3. The reason for the lower amounts of dopamine seen in this experiment as compared to that in Tables 2 and 3 is related to differences in time of exposure and plate size. X61 protein(s) were also preincubated with an antibody against neuronal nuclear protein as a control. This antibody had no effect on X61 protein(s) activity.
After this period, the MN9D cells on each plate are collected in 10 ml of CMF, transferred to 15 ml centrifuge tubes and centrifuged at 1000×g for 5 min. The supernatant is removed and 600 μl of 0.5N perchloric acid is added to the cell pellet which is then sonicated on ice for 10-15 seconds. The material obtained is centrifuged at 4000×g for 30 minutes and the supernatant stored at −80° C. MN9D cell DA content is determined by reverse phase high pressure liquid chromatography with electrochemical detection (HPLC-ED) as previously described (Heller et al., 1993). The pellet is stored at −20° C. for subsequent protein analysis.

B1: glial derived neurotrophic factor (protein, UniProt P39905 78-211, looked up)
Glial cell line-derived …: SPDKQMAVLPRRERNRQAAAANPENSRGKGRRGQRGKNRGCVLTAIHLNVTDLGLGYETKEELIFRYCSGSCDAAETTYDKILKNLSRNRRLVSDKVGQACCRPIAFDDDLSFLDDNLVYHILRKHSAKRCGCI
- effect on MN9D dopamine levels versus controls (1 ng/ml for 5 days): significantly lower; also recorded: significant decrease
- MN9D DA levels (1 ng/ml for 5 days, control 467±18.4): 356.0±14.4 ng/plate

B2: ciliary neurotrophic factor (protein, UniProt P26441 1-200, looked up)
Ciliary neurotrophic factor: MAFTEHSPLTPHRRDLCSRSIWLARKIRSDLTALTESYVKHQGLNKNINLDSADGMPVASTDQWSELTEAERLQENLQAYRTFHVLLARLLEDQQVHFTPTEGDFHQAIHTLLLQVAAFAYQIEELMILLEYKIPRNEADGMPINVGDGGLFEKKLWGLKVLQELSQWTVRSIHDLRFISSHQTGIPARGSHYIANNKKM
- effect on MN9D dopamine levels (100 ng/ml, 24 hour treatment): no significant effect
- MN9D DA levels (100 ng/ml, 24 hour treatment, controls 157.8±3.3): 156.5±10.9 ng/plate

B3: transforming growth factor β2 (protein, UniProt P61812 303-414, looked up)
Transforming growth factor …: ALDAAYCFRNVQDNCCLRPLYIDFKRDLGWKWIHEPKGYNANFCAGACPYLWSSDTQHSRVLSLYNTINPEASASPCCVSQDLEPLTILYYIGKTPKIEQLSNMIVKSCKCS
- effect on MN9D DA levels: without effect
